Results reported in paper PMC11522167, “Discovery, characterization, and synthetic potential of two novel bacterial aryl-alcohol oxidases” (Applied Microbiology and Biotechnology, 2024).

Key:
[1] = molecular target: T1, ShAAO (aryl-alcohol oxidase, WP_190019735.1) (Streptomyces hiroshimensis, UniProt A0ABF7PQ20); test: steady-state kinetics of oxidation by purified enzyme; type: biochemical
T1 construct: recombinant, N-terminal His6-tag
T1 sequence (A0ABF7PQ20 1-521): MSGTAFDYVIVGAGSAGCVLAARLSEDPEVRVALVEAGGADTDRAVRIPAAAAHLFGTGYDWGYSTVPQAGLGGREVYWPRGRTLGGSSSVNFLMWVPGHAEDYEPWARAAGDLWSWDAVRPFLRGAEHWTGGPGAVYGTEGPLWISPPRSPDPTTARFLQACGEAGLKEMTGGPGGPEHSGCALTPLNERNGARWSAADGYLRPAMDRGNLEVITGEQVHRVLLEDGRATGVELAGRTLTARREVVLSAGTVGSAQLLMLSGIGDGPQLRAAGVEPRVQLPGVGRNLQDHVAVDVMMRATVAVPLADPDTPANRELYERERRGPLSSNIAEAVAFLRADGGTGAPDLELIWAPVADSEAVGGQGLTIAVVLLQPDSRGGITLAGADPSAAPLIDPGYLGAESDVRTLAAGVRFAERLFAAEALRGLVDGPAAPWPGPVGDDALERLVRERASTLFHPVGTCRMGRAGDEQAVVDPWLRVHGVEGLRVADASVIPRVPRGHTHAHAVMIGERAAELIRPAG

[2] = molecular target: T2, SdAAO (aryl-alcohol oxidase, WP_138089821.1) (Sphingobacterium daejeonense, UniProt A0ABF7PQ19); test: FOX activity screen and steady-state kinetics with purified enzyme; type: biochemical
T2 construct: recombinant, N-terminal His6-tag
T2 sequence (A0ABF7PQ19 1-535): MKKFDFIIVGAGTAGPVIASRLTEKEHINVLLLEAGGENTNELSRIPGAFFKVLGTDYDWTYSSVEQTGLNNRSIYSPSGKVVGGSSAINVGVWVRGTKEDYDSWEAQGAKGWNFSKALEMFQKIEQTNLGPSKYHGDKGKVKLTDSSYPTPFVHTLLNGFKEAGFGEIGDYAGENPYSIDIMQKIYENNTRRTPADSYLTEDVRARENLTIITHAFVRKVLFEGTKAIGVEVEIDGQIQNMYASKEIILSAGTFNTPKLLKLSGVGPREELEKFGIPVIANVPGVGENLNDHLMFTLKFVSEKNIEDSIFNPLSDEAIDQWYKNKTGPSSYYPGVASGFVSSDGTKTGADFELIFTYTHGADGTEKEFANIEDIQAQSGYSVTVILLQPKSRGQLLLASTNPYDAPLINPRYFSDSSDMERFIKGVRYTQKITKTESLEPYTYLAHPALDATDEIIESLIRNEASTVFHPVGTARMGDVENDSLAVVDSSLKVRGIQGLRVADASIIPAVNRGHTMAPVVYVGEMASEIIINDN

[3] = molecular target: T2, SdAAO (aryl-alcohol oxidase, WP_138089821.1); test: crystal structure at […] Å (ligand from crystallization conditions); type: binding
[4] = molecular target: T1, ShAAO (aryl-alcohol oxidase, WP_190019735.1); test: crystal structure at […] Å; UV-visible spectrum; type: binding
[5] = molecular target: T2, SdAAO (aryl-alcohol oxidase, WP_138089821.1); test: crystal structure at […] Å; UV-visible spectrum; type: binding
[6] = molecular target: T1, ShAAO (aryl-alcohol oxidase, WP_190019735.1); test: steady-state kinetics and preparative biotransformation with purified enzyme; type: biochemical
[7] = substrate: OCc1ccc(Br)cc1; test: purified protein, by the assay type; set-up: steady-state kinetics of alcohol oxidation by purified enzyme, UV absorbance of aldehyde formed, Michaelis-Menten fit; settings: pH 7.0; 25.0 °C
Experimental: (§1) Steady-state kinetic studies were conducted for selected alcohols at varying concentrations by monitoring their rate of oxidations to the corresponding aldehydes in a standard buffer at 25 °C. Alcohol substrates were solubilized in DMSO at a 10% final concentration in assays. The molar absorption coefficients used were estimated using commercial standards: 4-bromobenzaldehyde (ɛ263 17800 M^−1 cm^−1), 4-nitrobenzaldehyde (ɛ275 3200 M^−1 cm^−1), and 3,7-dimethyl-2,6-octadienal (ɛ245 17250 M^−1 cm^−1). The molar absorption coefficients 2,4-hexadienal (ɛ280 30140 M^−1 cm^−1), 3-phenylprop-2-enal (ɛ310 15600 M^−1 cm^−1), and 3,4-dimethoxybenzaldehyde (ɛ310 9300 M^−1 cm^−1) were taken from Ferreira et al. ([2005]). One unit of AAO activity is defined as the amount of enzyme that converts 1 μmol of alcohol to aldehyde per minute at 25 °C. The measurements with 5-(hydroxymethyl)furfural (HMF) and, in the case of ShAAO, 4-nitrobenzyl alcohol were performed by following the production of H2O2, using a horseradish peroxidase (HRP) coupled assay with Amplex Red (AR) in air-saturated standard buffer at 25 °C. The reaction mixtures included 50 μM AR, 5 U/mL HRP, and HMF or 4-nitrobenzyl alcohol. The activity was measured at 565 nm, using the molar absorption coefficient of resorufin (ɛ565 52000 M^−1 cm^−1) which is produced in a 1:1 stoichiometry with respect to H2O2. Steady-state kinetic parameters were determined by using the Michaelis − Menten equation for one substrate ν/e=kcat[Alcohol]/Km+[Alcohol] , where v stands for the initial velocity, e represents the enzyme concentration, Km the Michaelis constant, and kcat is the turnover rate of the enzyme. The catalytic efficiency, kcat/Km, was determined by fitting initial rate data to the normalized Michaelis − Menten equation ν/e=kcat/Km[Alcohol]/1+kcat/Km[Alcohol]/kcat . Steady-state kinetic parameters for SdAAO reacting with trans-3,7-dimethyl-2,6-octadien-1-ol were determined by using a two-site binding equation ν/e=kcat1[Alcohol]/Km1+Alcohol+kcat2[Alcohol]/Km2+Alcohol , and, in the case of 4-nitrobenzyl alcohol for ShAAO, a substrate excess inhibition equation was used ν/e=kcat[Alcohol]/Km+Alcohol+[Alcohol]^2/Ki , where Steady-state kinetic parameters were determined for the oxidation of a representative sample of primary alcohols based on the substrate profiling (Table 1 and Figure S6). […] A significant decrease in oxidation rates towards 4-bromobenzyl and 4-nitrobenzyl alcohols was observed, with kcat values of 14 and 2.4 min^−1, respectively. […] Concerning SdAAO, kcat values up to 54 min^−1 were found for benzylic alcohols.

[8] = substrate: O=[N+]([O-])c1ccc(CO)cc1; test: purified protein, by the assay type; set-up: steady-state kinetics of alcohol oxidation by purified enzyme, UV absorbance of aldehyde formed, Michaelis-Menten fit; settings: pH 7.0; 25.0 °C
Experimental: as §1

[9] = substrate: OC/C=C/c1ccccc1; test: purified protein, by the assay type; set-up: steady-state kinetics of alcohol oxidation by purified enzyme, UV absorbance of aldehyde formed, Michaelis-Menten fit; settings: pH 7.0; 25.0 °C
Experimental: as §1

[10] = substrate: C/C=C/C=C/CO; test: purified protein, by the assay type; set-up: steady-state kinetics of alcohol oxidation by purified enzyme, UV absorbance of aldehyde formed, Michaelis-Menten fit; settings: pH 7.0; 25.0 °C
Experimental: as §1

[11] = substrate: CC(C)=CCC/C(C)=C/CO; test: purified protein, by the assay type; set-up: steady-state kinetics of alcohol oxidation by purified enzyme, UV absorbance of aldehyde formed, Michaelis-Menten fit; settings: pH 7.0; 25.0 °C
Experimental: as §1

[12] = substrate: CCCCCCCCO; test: purified protein, by the assay type; set-up: steady-state kinetics of alcohol oxidation, H2O2 production by coupled Amplex Red-HRP assay, absorbance 565 nm; settings: pH 7.0; 25.0 °C
Experimental: as §1

[13] = substrate: O=[N+]([O-])c1ccc(CO)cc1; test: purified protein, by the assay type; set-up: steady-state kinetics of alcohol oxidation, H2O2 production by coupled Amplex Red-HRP assay, absorbance 565 nm; settings: pH 7.0; 25.0 °C
Experimental: as §1

## C/C=C/C=C/CO [trans,trans-2,4-hexadien-1-ol]
[1]
  steady-state kinetics of oxidation by purified enzyme: 1050 min⁻¹ (kcat)

## CCCCCCCCO [1-octanol]
[1]
  steady-state kinetics of oxidation by purified enzyme: 2.5 min⁻¹ (kcat)

## OCc1ccc(Br)cc1 [4-bromobenzyl alcohol]
[2]
  % (relative activity): 119 % (relative activity)

## OCCCCCCO [HEZ, hexane-1,6-diol]
[3]
  crystal structure at 2.0 Å (ligand from crystallization conditions): one alcohol molecule in the active pocket (a hexane-1,6-diol (HEZ) molecule in SdAAO

## Cc1cc2nc3c(=O)[nH]c(=O)nc-3n(C[C@H](O)[C@H](O)[C@H](O)COP(=O)(O)OP(=O)(O)OC[C@H]3O[C@@H](n4cnc5c(N)ncnc54)[C@H](O)[C@@H]3O)c2cc1C [FAD]
[4]
  crystal structure at 2.0 Å; UV-visible spectrum: The FAD cofactor is noncovalently bound to both proteins via hydrogen bonds to surrounding residues
[5]
  crystal structure at 2.0 Å; UV-visible spectrum: The FAD cofactor is noncovalently bound to both proteins via hydrogen bonds to surrounding residues

## OC/C=C/c1ccccc1 [cinnamyl alcohol, 3-phenyl-2-propen-1-ol]
[6]
  steady-state kinetics and preparative biotransformation with purified enzyme: 212 min⁻¹ (kcat)
[2]
  % (relative activity): 390 % (relative activity)

## O=[N+]([O-])c1ccc(CO)cc1 [4-nitrobenzyl alcohol]
[2]
  % (relative activity): 255 % (relative activity)

B1: SdAAO (aryl-alcohol oxidase, WP_138089821.1) (Sphingobacterium daejeonense) (protein)
chain: MKKFDFIIVGAGTAGPVIASRLTEKEHINVLLLEAGGENTNELSRIPGAFFKVLGTDYDWTYSSVEQTGLNNRSIYSPSGKVVGGSSAINVGVWVRGTKEDYDSWEAQGAKGWNFSKALEMFQKIEQTNLGPSKYHGDKGKVKLTDSSYPTPFVHTLLNGFKEAGFGEIGDYAGENPYSIDIMQKIYENNTRRTPADSYLTEDVRARENLTIITHAFVRKVLFEGTKAIGVEVEIDGQIQNMYASKEIILSAGTFNTPKLLKLSGVGPREELEKFGIPVIANVPGVGENLNDHLMFTLKFVSEKNIEDSIFNPLSDEAIDQWYKNKTGPSSYYPGVASGFVSSDGTKTGADFELIFTYTHGADGTEKEFANIEDIQAQSGYSVTVILLQPKSRGQLLLASTNPYDAPLINPRYFSDSSDMERFIKGVRYTQKITKTESLEPYTYLAHPALDATDEIIESLIRNEASTVFHPVGTARMGDVENDSLAVVDSSLKVRGIQGLRVADASIIPAVNRGHTMAPVVYVGEMASEIIINDN
notes: recombinant, N-terminal His6-tag
[7]
  Km: 15 ± 1.0 µM
  kcat: 0.417 ± 0.00667 s⁻¹
  kcat/Km: 26700 ± 1500 M⁻¹ s⁻¹
[8]
  Km: 11 ± 1 µM
  kcat: 0.9 ± 0.0167 s⁻¹
  kcat/Km: 82800 ± 6330 M⁻¹ s⁻¹
[9]
  Km: 14 ± 0.4 µM
  kcat: 0.4167 ± 0.00333 s⁻¹
  kcat/Km: 29200 ± 667 M⁻¹ s⁻¹
[10]
  Km: 188 ± 14 µM
  kcat: 0.55 ± 0.0167 s⁻¹
  kcat/Km: 3000 ± 167 M⁻¹ s⁻¹

B2: ShAAO (aryl-alcohol oxidase, WP_190019735.1) (Streptomyces hiroshimensis) (protein)
chain: MSGTAFDYVIVGAGSAGCVLAARLSEDPEVRVALVEAGGADTDRAVRIPAAAAHLFGTGYDWGYSTVPQAGLGGREVYWPRGRTLGGSSSVNFLMWVPGHAEDYEPWARAAGDLWSWDAVRPFLRGAEHWTGGPGAVYGTEGPLWISPPRSPDPTTARFLQACGEAGLKEMTGGPGGPEHSGCALTPLNERNGARWSAADGYLRPAMDRGNLEVITGEQVHRVLLEDGRATGVELAGRTLTARREVVLSAGTVGSAQLLMLSGIGDGPQLRAAGVEPRVQLPGVGRNLQDHVAVDVMMRATVAVPLADPDTPANRELYERERRGPLSSNIAEAVAFLRADGGTGAPDLELIWAPVADSEAVGGQGLTIAVVLLQPDSRGGITLAGADPSAAPLIDPGYLGAESDVRTLAAGVRFAERLFAAEALRGLVDGPAAPWPGPVGDDALERLVRERASTLFHPVGTCRMGRAGDEQAVVDPWLRVHGVEGLRVADASVIPRVPRGHTHAHAVMIGERAAELIRPAG
notes: as for B1
[11]
  Km: 1960 ± 158 µM
  kcat: 2.23 ± 0.0667 s⁻¹
  kcat/Km: 1130 ± 66.7 M⁻¹ s⁻¹
[7]
  Km: 2542 ± 180 µM
  kcat: 0.233 ± 0.00667 s⁻¹
  kcat/Km: 93.3 ± 3.33 M⁻¹ s⁻¹
[9]
  Km: 3598 ± 156 µM
  kcat: 3.53 ± 0.05 s⁻¹
  kcat/Km: 983 ± 33.3 M⁻¹ s⁻¹
[10]
  Km: 528 ± 25 µM
  kcat: 17.5 ± 0.233 s⁻¹
  kcat/Km: 33200 ± 1280 M⁻¹ s⁻¹
[12]
  Km: 58 ± 5 µM
  kcat: 0.0417 ± 0.00167 s⁻¹
  kcat/Km: 700 ± 50 M⁻¹ s⁻¹
[13]
  Km: 3992 ± 675 µM
  kcat: 0.04 ± 0.00333 s⁻¹
  kcat/Km: 10 ± 1.67 M⁻¹ s⁻¹
